Experiment: yeast display, Sf9 membrane polyspecificity reagent, FACS + sequencing; frameworks hold sequencing errors
How it was run: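 Polyreactivity labels are assigned by the sorting gate from which each nanobody was recovered. The gates were low and high (top ~1%), set on anti-HA fluorescence for expression and streptavidin fluorescence for reagent binding. Before sorting, galactose-induced (36–48 hours) yeast display cells were stained for 1 hour at 4 °C with 10% biotinylated, detergent-solubilized Sf9 membrane reagent.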

Sequence	polyreactivity (PSR sort gate)
QFQLVESGGGLVQAGGSLRLSCAASGRIFASIGMGWYRQAPGKEREFVAAINRSGGSTYYADSVKGRFTISRVNAKNSVYLQMNSLKPEDTAVYYCNKDYLYSYLWGWKVYSYDYWGQGTQVTVSS	low polyreactivity
QFQLVESGGGLVQAGGSLRLSCAASGRIFEDSMGWYRQAPGKERELVAAIRWSGGGTYYADSVKGRFTISRDNAKNTVYLQMNSLKPEDTAVYYCATPGTGSVELYGYWGQGTQVTVSS	low polyreactivity
QFQLVESGGGLVQAGGSLRLSCAASGRIFFIYAMGWYRQAPGKERELVAGINRTGGSTNYADSVKGRFTISRDNAKNTVYLQMNSLKPEDTAVYYCAADIYDGGFDYWGQGTQVTVSS	low polyreactivity
QFQLVESGGGLVQAGGSLRLSCAASGRIFFRNAMGWYIQAPGKETELVADNTNGGSTNYADSEKGRFTISRDNAKYTVYLQMNSLNPEDTAVYYCAADTLGVYDGDYWGQGTQVTVSS	low polyreactivity
QFQLVESGGGLVQAGGSLRLSCAASGRIFGPYAMGWYRQAPGKERELVASISGGGSTNYADSVKGRFTISRDNAKNTVYLQMNSLKPEDTAVYYCAADVYYQYWGWWPYDYWGQGTQVTESS	low polyreactivity
QFQLVESGGGLVQAGGSLRLSCAASGRIFGVYARGWYRQAPGKERELVAAISSTGGSTYYADSVKGRFTISRDTAKNTVYLQMNSLKPEDTAVYYCEYDYWGQGTQVTVSS	low polyreactivity
QFQLVESGGGLVQAGGSLRLSCAASGRIFVPNGMGWYRQAPGKERELVAVIDWSGGSTYYADSVKGRFTISRDNAKNTVYLQMNRLKPEDTAVYYCNAYPYDESDYWGQGTQVTVSS	low polyreactivity
QFQLVESGGGLVQAGGSLRLSCAASGRIFVRYAMGWYSQAPGKERQLVAAISKSGGSTYYADSVKGRYTISRDNAKNTVYLQMNSLNPEDTAVDYCAADYTGFFPDGSDVDFDYWGQGTQVTVSS	low polyreactivity
QFQLVESGGGLVQAGGSLRLSCAASGRTFGRYTMGWYRPAPGKEREFVARINWNGGGTYYEDSVKGRFTISRDNAKNTVYLQMNSLKPEDTEVYYCNARKRGARFILGYDYSGQGTQVTVSS	low polyreactivity
QFQLVESGGGLVQAGGSLRLSCAASGRTFGTYAMGWYRQAPGKEREVVAAISTRGGRTFYADSVKGRFTISRDNAKNTVYLQMNSLKPEDTAVYYCAARGTDPGHKYEYWGQGTQVTVSS	high polyreactivity
QFQLVESGGGLVQAGGSLRLSCAASGRTFRSNTMGWYRQAPGKEREFVAVITYSAGSTYYADSVKGRFTISRDNAKNTVYLQMNSLKPEDTAVYYCAARVSWWPYDWYGYWGQGTQVTVSS	high polyreactivity
QFQLVESGGGLVQAGGSLRLSCAASGRTFTSNAMGWYRQAPGKERELVAAIDDGGSTNYADSVKGRFTISRDNAKNTVYLQMNSLKPEDTAVYYCATGYWELRYDYWGQGTQVTVSS	low polyreactivity
QFQLVESGGGLVQAGGSLRLSCAASGRTFYDNTMGWYRQAPGKERELVAAITRNGGSTYYADSVKGRFTISRDNAKNTVYLQMNSLKPEDTAVYYCAAEGPSHRLNVRLVKGSDSWGQGTQVTVSS	low polyreactivity
QFQLVESGGGLVQAGGSLRLSCAASGRTISHNVMGWYRQAPGKEWELVAAISRNGGRTYYADSVKGRFTISRDNAKNTVYLQLNSLKTEDTAVYYCAAEAYPEYYYWGLGTQVTVSS	high polyreactivity
QFQLVESGGGLVQAGGSLRLSCAASGRTLSSYDMGWYRQAPGKERELVAAISRGGSTYYADSVKGRFTISRDNAKNTVYLQMNSLKPEDTAVYYCAASFYGGYWGYDYWGQGTQVTVSS	high polyreactivity
QFQLVESGGGLVQAGGSLRLSCAASGSIFGYYDMGWYRQAPGKERELVAAISWSGDTTYYADSVKGRFTISRDNAKNTVDLQMNILTPEDTAVYYCSAEFYDWLGGMGYWGQGTQVNVSS	low polyreactivity

Sequence	polyreactivity (PSR sort gate)
QFQLVESGGGLVQAGGSLRLSCAASGSIFPNYAMGWYRQAPGKDRELVAVITQRGGRTYYADSVKGRFTISRDNAKNTVYLQMNSLKPEDTAVYYCAASYRGVPEYDSWGQGTQVTVSS	low polyreactivity
QFQLVESGGGLVQAGGSLRLSCAASGSIFRGTAMGWYRQAPGKERELVAAINKSGGSTYYADSVKGRFTISRDNAKNTVYLQMNSLKPEDTAVYYCAARGYFWSSYKYDYWGQGTEVTVSS	high polyreactivity
QFQLVESGGGLVQAGGSLRLSCAASGSIFSVYTKGRYRQAPGKERELVAAISTGGGSTYYADSVKGRFTISRDNAKNTVYLQMNSLKPEDTALYYCATDYGWAPSYWYDSCGQGTQVTVSS	low polyreactivity
QFQLVESGGGLVQAGGSLRLSCAASGSIFSYYAMGWYRQAPGKERELVAGITWSGGRTYYADSVKGRFTISRDNAKNTVYLQMNSLKPEDTAVYYCAAAVKRALDYWGQGTQVTVSS	high polyreactivity
QFQLVESGGGLVQAGGSLRLSCAASGSIFTLYDMGWYRQAPGNERELVAAISSGGGSTYYADSVKGRFTISRDNAKNTVYLQMNSLKPEDTAVYYCAARNRRAKYGDWGQGTQVTVSS	high polyreactivity
QFQLVESGGGLVQAGGSLRLSCAASGSIFVTNAMGWYRQAPGKERELVAAISSGGNTNYADSVKGRFTISRDNAKNTVYLQMNSLKPEDTAVYYCAKDPDKVDFVDMDYWGQGTQVTVSS	low polyreactivity
QFQLVESGGGLVQAGGSLRLSCAASGSIFYRYAMGSDRQAPGKERELVAAISTGGGSTKYADSVKGRFTISRHNAKNTVYLQMNSLKPEDTAVYYCAASRAVTQYSGGGYGGQGTQVTVSS	high polyreactivity
QFQLVESGGGLVQAGGSLRLSCAASGSIFYYNAMGCYRQAPGKEREVVAAISWSGGSTYYADSVKGRFTISRDNAKNTVYLQMNSLKPEDTAVYYCNAVGWYTYFYGSRKYNSWGQGTQVTVSS	low polyreactivity
QFQLVESGGGLVQAGGSLRLSCAASGSILVPNDMGWYRQAPGKEREFVAAITESDGSTYYADSVKGRFTISRDNAKNTVYLQMNSLKPEDTAVYYCASDSTGVTFVHFDYWGQGTQVTVSS	low polyreactivity
QFQLVESGGGLVQAGGSLRLSCAASGSTFDPNAMGGYRQAPGKERELVASITSRGGSTYYADSVKGRFTISRDNAKNTVYLQMNSLKPEDTAVYYCAAVGGATYSWNGYSWYPWHNYWGQGTQVTVSS	low polyreactivity
QFQLVESGGGLVQAGGSLRLSCAASGSTFGTYAMGWYRQAPGKERELVAAISSGGSTYYADSVKGRFTISRDNAKNTVYLQMNSLKPEDTAVYYCAAGYYWYVWGFGYWGQGTQVTVSS	low polyreactivity
QFQLVESGGGLVQAGGSLRLSCAASGSTFSNYAMGWYRQAPGKERELVAAISSRGGSTYYADSVKGRFTISRDHAKNTVNLQMISLKPEDTAVYYCATYYVYKLYYWGQGTQVTVSS	high polyreactivity
QFQLVESGGGLVQAGGSLRLSCAASGSTFWTNAMGWYRQAPGKERELVAVISRGGSTNYADSVKGRFTISRDNEKNTVYLQMNSLKPEDTAVFYCAAASYLYGRYYYWGQGTQVTVSS	high polyreactivity
QFQLVESGGGLVQAGGSLRLSCAATGSIFHYYAMGWYRHAPGKERELVAAINSSGGSRSYYADSVKGRFTISRDNAKNTVFLQMNSLKPVDTAVYYCAAEYRVVWRAYDYWGKGTQVTVSS	low polyreactivity
QFQLVESGGGLVQAGGSLRLSCADSGIIFRDNAMGWYRQAPGKERELVATIRRRGGGTYYADSVKGRFTISRDNAKNTVYLQMNSLKPEDSAVYYCAARVIKSSHDYDYWGQGTQVTVSS	low polyreactivity
QFQLVESGGGLVQAGGSLRLSCADSGSIFLLYVMGWYRQAPGKERELVAAISSGGSTNYADSVKGRFTISRDNAKNTVYLQMNSLKPEDTAVYYCNAVAVPQGVKLYDYWGQGTQVTVSS	low polyreactivity

From the nanobody polyreactivity screen of Harvey et al. (2022)
